Some results are limits rather than exact numbers.

A word on the pKi: it is the Ki on a negative log10 scale, so that one unit is a factor of ten. Read a high pKi as a low Ki.

The target in assay [1] is human CXCR4 (human).
The target of assay [2] is human CXCR4 (human). The assay is described as follows: competition vs [125I]-CXCL12; potency relative to monovalent 238D4.
In assay [3] the target is human CXCR4 (human). Nature of the assay: competition vs [125I]-CXCL12; potency relative to monovalent 238D2.
Assay [4] addresses human CXCR4 (human). The assay is described as follows: competition with [125I]-CXCL12 on HEK293T-CXCR4 membranes.
A further assay addresses CCR5 (UniProt P51681). The assay is described as follows: cell-based or functional assay.
Assay [5] deals with human CXCR4 (human). The assay is described as follows: cell-based or functional assay.
Assay [6] concerns the target human CXCR4 (human). The assay is described as follows: competition vs [125I]-CXCL12, membranes of HEK293T cells expressing CXCR4.
For assay [7], the target named is human CXCR4 (human). Nature of the assay: competition vs [125I]-CXCL12, membranes of HEK293T cells expressing CXCR4; displacement at 0.5 µM, maximum not reached.
The target in assay [8] is human CXCR4 (human). The assay is described as follows: competition vs [125I]-238D4 (3 nM), membranes of HEK293T cells expressing CXCR4; Table B-3 competition vs [125I]-238D4, up to 0.5 µM; bound only.
Assay [9] has as its target human CXCR4 (human). Nature of the assay: competition vs [125I]-238D4 (3 nM), membranes of HEK293T cells expressing CXCR4; Table B-3 competition vs [125I]-238D4, at 0.5 µM: no displacement.
For assay [10], the target named is human CXCR4 (human). The assay is described as follows: competition vs [125I]-238D2 (3 nM), membranes of HEK293T cells expressing CXCR4; Table B-3 competition vs [125I]-238D2, up to 0.5 µM; bound only.
The target in assay [11] is human CXCR4 (human). Nature of the assay: competition vs [125I]-CXCL12 (40 pM), membranes of HEK293T cells expressing CXCR4; Table B-3 competition vs [125I]-CXCL12, up to 0.5 µM; bound only.
In assay [12] the target is human CXCR4 (human). Nature of the assay: competition vs [125I]-238D2 (3 nM), membranes of HEK293T cells expressing CXCR4; Table B-3 competition vs [125I]-238D2, at 0.5 µM: no displacement.
Assay [13] deals with human CXCR4 (human). Nature of the assay: periplasmic fraction (1:10), displacement of [125I]-CXCL12, HEK293T-CXCR4 membranes; - = 0-29%, + = 30-69%, ++ = 70-100%; screening of clones (Table B-2): 30-69% displacement of [125I]-CXCL12, HEK293T-CXCR4 membranes. On the technique in general: In a radioligand displacement assay an active substance lowers the binding of a labelled ligand.

Chain of CCR5 (P51681 whole entry): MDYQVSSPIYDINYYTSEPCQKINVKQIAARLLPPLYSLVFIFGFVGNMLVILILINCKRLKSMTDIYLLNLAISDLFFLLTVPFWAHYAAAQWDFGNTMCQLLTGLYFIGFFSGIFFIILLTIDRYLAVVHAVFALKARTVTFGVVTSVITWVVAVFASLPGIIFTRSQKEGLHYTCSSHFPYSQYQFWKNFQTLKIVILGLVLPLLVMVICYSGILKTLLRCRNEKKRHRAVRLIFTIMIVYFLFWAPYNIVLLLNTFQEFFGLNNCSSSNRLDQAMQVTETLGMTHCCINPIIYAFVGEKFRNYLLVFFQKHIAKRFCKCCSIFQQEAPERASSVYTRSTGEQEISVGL

B1: 238D2-20GS-238D4 (VHH)
chain: EVQLVESGGGLVQTGGSLRLSCAASGFTFSSYAMSWVRQAPGKGLEWVSGIKSSGDSTRYAGSVKGRFTISRDNAKNMLYLQMYSLKPEDTAVYYCAKSRVSRTGLYTYDNRGQGTQVTVSSGGGGSGGGGSGGGGSGGGGSEVQLMESGGGLVQAGGSLRLSCAASGRTFNNYAMGWFRRAPGKEREFVAAITRSGVRSGVSAIYGDSVKDRFTISRDNAKNTLYLQMNSLKPEDTAVYTCAASAIGSGALRRFEYDYSGQGTQVTVSS
On to B1, for which, in the assay with human CXCR4 (human) [1], the IC50 (read off the curve), migration of Jurkat cells towards 0.3 nM CXCL12 came to 0.2 nM. The Rel. potency in the assay with human CXCR4 (human) [2] worked out at 17 fold. In the assay with human CXCR4 (human) [3], this molecule registered a Rel. potency of 27 fold. In the assay with human CXCR4 (human) [4], the IC50 (read off the curve) came out at 0.5 nM. In the assay with CCR5, this molecule displayed an Anti-HIV-1 activity (in nM), PBMC/BaL above 100 nM; an Anti-HIV-1 activity (in nM), U87.CD4.CCR5/BaL above 100 nM; an IC50, HIV-1 BaL, PBMC donor 1 above 1 µg/mL; an IC50, HIV-1 BaL, PBMC donor 2 above 1 µg/mL. Moreover, in the assay with CCR5, the IC90, HIV-1 BaL, PBMC donor 1 is above 1 µg/mL; the IC90, HIV-1 BaL, PBMC donor 2 was above 1 µg/mL; the nM IC50, HIV-1 BAL, PBMC donor 1 is above 67 nM; the nM IC50, HIV-1 BAL, PBMC donor 2 is above 67 nM. In the assay with human CXCR4 (human) [5], the Anti-HIV-1 activity (in nM), MT-4/NL4.3 came out at 0.25 nM; the Anti-HIV-1 activity (in nM), PBMC/HE came to 2.3 nM; the Anti-HIV-1 activity (in nM), PBMC/NL4.3 worked out at 0.2 nM; the Anti-HIV-1 activity (in nM), U87.CD4.CXCR4/NL4.3 is 0.35 nM. Further, in the assay with human CXCR4 (human) [5], the Chemotaxis, Jurkat/0.3 nM CXCL12, Imax (%) was 100%; the Chemotaxis, Jurkat/0.3 nM CXCL12, pKi or pIC50 was 10.2; the IC50, HIV-1 NL4.3, MT-4 cells, exp. 1 is 0.0069 µg/mL; the IC50, HIV-1 NL4.3, PBMC donor 1 was 0.0182 µg/mL. In the assay with human CXCR4 (human) [5], this molecule yielded an IC50, HIV-1 NL4.3, PBMC donor 2 of 0.0092 µg/mL; an IC50, HIV-1 UG270, PBMC donor 1 of 0.0242 µg/mL; an IC50, HIV-1 UG270, PBMC donor 2 of 0.0831 µg/mL; an IC90, HIV-1 NL4.3, MT-4 cells, exp. 1 of 0.0238 µg/mL. Moreover, in the assay with human CXCR4 (human) [5], the IC90, HIV-1 NL4.3, PBMC donor 1 stood at 0.0972 µg/mL; the IC90, HIV-1 NL4.3, PBMC donor 2 amounted to 0.0731 µg/mL; the IC90, HIV-1 UG270, PBMC donor 1 was found to be 0.139 µg/mL; the IC90, HIV-1 UG270, PBMC donor 2 was determined as 0.168 µg/mL. In the assay with human CXCR4 (human) [5], the nM IC50, HIV-1 NL4.3, PBMC donor 1 turned out to be 0.61 nM; the nM IC50, HIV-1 NL4.3, PBMC donor 2 was determined as 0.31 nM; the nM IC50, HIV-1 UG270, PBMC donor 1 came out at 0.81 nM; the nM IC50, HIV-1 UG270, PBMC donor 2 worked out at 2.77 nM. In the assay with human CXCR4 (human) [6], this molecule showed a Displacem. (%) of 103% and a pKi of 9.44.

B2: 238D2-20GS-238B10 (VHH)
chain: EVQLVESGGGLVQTGGSLRLSCAASGFTFSSYAMSWVRQAPGKGLEWVSGIKSSGDSTRYAGSVKGRFTISRDNAKNMLYLQMYSLKPEDTAVYYCAKSRVSRTGLYTYDNRGQGTQVTVSSGGGGSGGGGSGGGGSGGGGSEVQLVESGGGFVQAGGSLRLSCETSGRPLLGYTIAWFRQVPGKEREFVAYHRWSDGANLYADSVKGRFTISGHNAKNTVSLQMNSLKPEDTAVYYCAAARMTTSNDKEYLYWGQGTQVTVSS
For B2, the Displacem. (%) with human CXCR4 (human) [7] worked out at 43%. The molecule further displayed a Rel. potency with human CXCR4 (human) [3] below 0.1 fold. In addition, the pKi in the assay with human CXCR4 (human) [6] was below 7.

B3: Nanobody 237A6 (VHH)
VHH: EVQLVESGGGLVQAGGSLRLSCAASGSIFSLNAMGWYRQAPGKQRELVAGITSSTSTYYADSVKGRFTISRDNTKNTVYLQMNSLKPEDTAVYYCNVDCPDYYSDYECPLEDRGQGTQVTVSS
B3: the pKi with human CXCR4 (human) [8], with human CXCR4 (human) [10] and with human CXCR4 (human) [11] was below 6.3 each time. The Displacem. (%) with human CXCR4 (human) [9] and with human CXCR4 (human) [12] was 0% each time. In addition, in the assay with human CXCR4 (human) [13], the percent inhibition of specific [125I]-CXCL12 binding fell in the range of 30 to 69%.

B4: Nanobody 237G7 (VHH, from a related filing, part only)
VHH: EVQLVESGGGLVQPGGSLRLSCAASSFIGNYHAIVWLRQAPGKELEGVSCITSRDSITYYASFVKGRFTISRDDAKNTVYLQMNNLKPEDTAVYYCAVBTSMTCPTLIVRFNYRGQGTQVTVSS
On to B4, for which the pKi with human CXCR4 (human) [8], with human CXCR4 (human) [10] and with human CXCR4 (human) [11] was below 6.3 each time. The Displacem. (%) in the assay with human CXCR4 (human) [9] and in the assay with human CXCR4 (human) [12] was 0% throughout. Also, in the assay with human CXCR4 (human) [13], the percent inhibition of specific [125I]-CXCL12 binding lay in the range of 30 to 69%.

Source of the values: patent US20110318347A1.
